One block for each binder: values may come before it.
Experiments:
[1] = molecular target: T1, recombinant Fc-tagged human PD-L1 (R&D Systems, 156-B7) (human, UniProt Q9NZQ7 19-239); test: SPR competition: sdAb mixed with soluble recombinant human PD-L1, run over immobilized human PD-1 (FIG. 16B)
T1 construct: Bought protein; Also the immunogen for the alpacas; also called PD-L1-Fc; Fc-PD-L1; not shown: Fc tag
Source text: (§1) To evaluate the sdAb's IC₅₀, the sdAb concentration at which the relative response of the interaction between PD-1 and PD-L1 is inhibited by half, Fc-PD-1 protein was immobilized on a CM5 chip. […] The maximum relative response values were plotted in function of competing sdAb concentration and analyzed with a “Log inhibitor versus response (variable lope)” model in Prism to calculate IC₅₀ values.

[2] = molecular target: T1, recombinant Fc-tagged human PD-L1 (R&D …); test: SPR competition: sdAb K2 (0,78 to 1000 nM) mixed with 25 nM PD-L1-Fc and run over immobilized PD-1 Fc. The binder is named by legend paragraph 20, not on the sheet. The text gives 9.5 nM for this figure.
Method: (§2) All measurements were performed on a Biacore T200 device (GE Healtcare) at 25° C. and using Hepes-buffered saline (0.01M HEPES, pH 7.4; 0.15M NaCl, 3 mM EDTA, 0.005% Tween20) as running buffer. All recombinant proteins were dissolved to 10 μg/mL in 10 mM Na-acetate (pH 5.0) for immobilization on a CM5 sensor chip using linkage chemistry with 1-(3-(dimethylamino)propyl)-3-ethylcarbodiimide (EDC) and N-hydroxy-succinimide ([…]). Unreacted EDC-NHS linkers were blocked with 1M ethanolamine-HCl. For all measurements, SPR signals in the flow cell with immobilized protein were subtracted with those in a flow cell that underwent the same manipulations but where recombinant protein was omitted, to obtain specific binding signals (response units, RU). Affinity for human PD-L1 of the purified sdAbs was evaluated on immobilized PD-L1 protein.
as §1

[3] = molecular target: T1, recombinant Fc-tagged human PD-L1 (R&D …); test: SPR competition: sdAb mixed with 25 nM PD-L1-Fc, run over immobilized PD-1-Fc (FIG. 5A)
Method: as §2, §1

[4] = molecular target: T2, human PD-L1 expressed on cells (lentivirally transduced HEK293T, MCF7 and 624-MEL cells; endogenous on moDCs) (human, UniProt Q9NZQ7 19-290); test: flow cytometry, fold increase in mean fluorescence intensity of binding to human PD-L1 compared to control sdAb
T2 construct: whole, on cells; also called PD-L1+ MCF7

[5] = molecular target: T3, recombinant His-tagged human PD-L1 protein (SINO Biologicals, 10084-H08H) (human, UniProt Q9NZQ7 19-238); test: SPR (Biacore T200), purified sdAb over immobilized recombinant human PD-L1
T3 construct: Bought protein; also called immobilized recombinant PD-L1 protein; not shown: His-tag
Method: as §2

T1 sequence (Q9NZQ7 19-239 limits assumed): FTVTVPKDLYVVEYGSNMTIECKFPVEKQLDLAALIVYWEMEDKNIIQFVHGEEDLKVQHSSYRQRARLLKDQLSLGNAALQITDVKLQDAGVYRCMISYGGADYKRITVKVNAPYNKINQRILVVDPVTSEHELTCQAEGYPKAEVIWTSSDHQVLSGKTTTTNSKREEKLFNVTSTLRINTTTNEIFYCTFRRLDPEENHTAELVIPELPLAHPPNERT
T2 sequence (Q9NZQ7 19-290): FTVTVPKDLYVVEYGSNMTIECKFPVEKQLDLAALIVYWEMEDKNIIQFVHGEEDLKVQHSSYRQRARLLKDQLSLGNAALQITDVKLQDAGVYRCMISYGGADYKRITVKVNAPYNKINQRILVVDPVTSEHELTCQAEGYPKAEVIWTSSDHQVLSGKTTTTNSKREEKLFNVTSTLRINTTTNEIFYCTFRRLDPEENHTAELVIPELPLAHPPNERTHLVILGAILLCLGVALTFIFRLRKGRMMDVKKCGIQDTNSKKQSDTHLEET
T3 sequence (Q9NZQ7 19-238 limits assumed): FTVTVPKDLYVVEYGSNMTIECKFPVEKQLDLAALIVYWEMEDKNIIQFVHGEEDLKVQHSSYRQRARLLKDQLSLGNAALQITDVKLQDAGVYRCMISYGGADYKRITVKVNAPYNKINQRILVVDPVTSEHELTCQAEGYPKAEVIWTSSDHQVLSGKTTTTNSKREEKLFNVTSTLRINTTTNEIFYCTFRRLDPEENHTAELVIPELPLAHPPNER

IC50 [1]: 8.5 nM | IC50 [2]: 10 nM | IC50 [3]: 9.5 nM | MFI PD-L1 binding (fold increase) [4]: 22.8 fold | Kd [5]: 5.2 nM
B1: sdAb K2 (human PD-L1-specific single domain antibody, C-terminal HIS-tag) (VHH)
VHH: QVQLQESGGGLVQPGGSLRLSCAASGFTFSSFAMSWVRQAPGKGLEWVSDIDTTGRTTDYADSVKGRFTISRDNAENTLYLQMNDLKPEDTAVYYCANVPKELVLSFGSWGPGTQVTVSS
notes: also called anti-hPD-L1 sdAb K2; K2 (huPDL1 nanobody)

MFI PD-L1 binding (fold increase) [4]: 6.9 fold | Kd [5]: 4.5 nM
B2: sdAb K4 (human PD-L1-specific single domain antibody, C-terminal HIS-tag) (VHH)
VHH: QVQLQESGGGLVQPGGSLRLSCAASGFTFSSFAMSWVRQVPGRTLEWVSDINTGGDSTDYANSVKGRFTISRDNAKNTLYLQMNSLKPDDTAVYYCANVPKELVFSFASWGRGTQVTVSS

MFI PD-L1 binding (fold increase) [4]: 23.4 fold | Kd [5]: 3.5 nM
B3: sdAb K3 (human PD-L1-specific single domain antibody, C-terminal HIS-tag) (VHH)
VHH: QVQLQESGGGSVQPGGSLRLSCEASGFTFSSYAMSWVRQAPGEGLEWVSDINTGGDNTDYAGSVKGRFTISRDNAKNTLYLQMDSLKPEDTAKYYCANVPKELVHSFNSWGQGTQVTVSS
notes: also called K3 (huPDL1 nanobody)

From patent US20210147546A1 (VRIJE UNIVERSITEIT BRUSSEL, published 2021)
